{"source": "patent US20050003420", "about": "“Recycled mutagenesis of restriction endonuclease toward enhanced catalytic activity” (published 2005)", "key": {"[1]": {"target": "BsoBI pseudorevertant 6c E46V/D61E/S94T/D246A (UniProt P70985)", "assay": "cleavage_in_vitro", "conditions": "pUC19, 65 C"}, "[2]": {"target": "T1, BsoBI D246E D246E (UniProt P70985)", "T1 sequence": "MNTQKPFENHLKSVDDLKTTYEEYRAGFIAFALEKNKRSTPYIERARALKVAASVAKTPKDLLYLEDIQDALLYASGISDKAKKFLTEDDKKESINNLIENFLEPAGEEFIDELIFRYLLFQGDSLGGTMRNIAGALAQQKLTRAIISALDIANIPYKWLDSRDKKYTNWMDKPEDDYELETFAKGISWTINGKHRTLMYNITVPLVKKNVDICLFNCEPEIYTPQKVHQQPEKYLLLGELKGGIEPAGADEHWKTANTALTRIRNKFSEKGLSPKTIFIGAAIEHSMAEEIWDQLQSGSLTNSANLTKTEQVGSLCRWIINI", "assay": "cleavage_in_vitro", "conditions": "lambda or pUC19; purified D246E also lacked measurable cleavage"}, "[3]": {"target": "T2, BsoBI D246N D246N (UniProt P70985)", "T2 sequence": "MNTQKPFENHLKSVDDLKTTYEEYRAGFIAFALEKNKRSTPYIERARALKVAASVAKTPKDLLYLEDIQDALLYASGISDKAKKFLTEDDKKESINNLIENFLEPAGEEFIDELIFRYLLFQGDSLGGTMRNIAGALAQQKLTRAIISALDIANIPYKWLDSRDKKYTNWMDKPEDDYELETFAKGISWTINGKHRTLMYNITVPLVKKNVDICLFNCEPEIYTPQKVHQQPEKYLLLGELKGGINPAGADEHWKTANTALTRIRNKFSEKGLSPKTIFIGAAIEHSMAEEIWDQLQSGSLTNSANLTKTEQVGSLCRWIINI", "assay": "cleavage_in_vitro", "conditions": "cell extract"}, "[4]": {"target": "T3, BsoBI D246Q D246Q (UniProt P70985)", "T3 sequence": "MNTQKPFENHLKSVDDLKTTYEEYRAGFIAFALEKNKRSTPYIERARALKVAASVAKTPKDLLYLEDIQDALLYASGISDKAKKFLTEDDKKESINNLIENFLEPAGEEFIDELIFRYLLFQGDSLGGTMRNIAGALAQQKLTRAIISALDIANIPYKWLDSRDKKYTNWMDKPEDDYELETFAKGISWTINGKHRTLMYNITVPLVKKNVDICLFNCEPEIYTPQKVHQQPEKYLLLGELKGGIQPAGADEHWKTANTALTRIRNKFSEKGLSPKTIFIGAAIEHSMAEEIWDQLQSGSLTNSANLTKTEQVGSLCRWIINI", "assay": "cleavage_in_vitro", "conditions": "cell extract"}, "[5]": {"target": "T4, PvuII K93R/R105H (UniProt P23657 P23657:1-157, K93R/R105H)", "T4 sequence": "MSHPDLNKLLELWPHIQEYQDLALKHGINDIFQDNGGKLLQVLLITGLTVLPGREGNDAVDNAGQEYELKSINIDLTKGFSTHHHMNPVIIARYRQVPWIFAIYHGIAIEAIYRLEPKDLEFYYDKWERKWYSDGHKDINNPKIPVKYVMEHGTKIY", "assay": "cleavage_in_vitro; NEB buffer 2, 37 C, 1.5 h", "conditions": "tags: His-tag; chain copies: 2 inferred", "excerpt": "(§1) In order to test the cleavage specificity of the mutant endonucleases, two substrates were designed such that a limited number of sites related to the PvuII cognate sequence were present. A 1042 bp DNA substrate, corresponding to bases 317-1359 of the pUC19 sequence (GenBank #L09137), was amplified from pUC19. This substrate contains a unique PvuII site 631 bp from one end. A second, 1270 bp DNA substrate was amplified from the region corresponding to bases 6010-7280 of pTYB1 (New England Biolabs, Beverly, Mass.). This substrate contains a unique MfeI site 1022 bp from one end, and a unique PmlI site 810 bp from the same end. These substrates were used to determine the substrate specificity of PvuII (K93R) and its variants K93R/R105H, K93R/V50A and E18K/K93R/R105H. PvuII restriction digestion was assayed in NEB buffer 2 at 37° C. for 1.5 hour (New England Biolabs, Inc., Beverly, Mass.). […] The amount of protein required to cleave the MfeI/PmlI substrate at the MfeI site is >10 μg for the K93R mutant, 0.1 μg for K93R/105H, for 0.1 μg K93R/V50A, and 0.03 μg for K93R/R105H/E18K. The amount of protein required to cleave the MfeI/PmlI substrate at the PmlI site is >10 μg for the K93R mutant, 3 μg for K93R/105H, 3 μg for K93R/V50A, and 3 μg for K93R/R105H/E18K. Cleavage of the MfeI or PmlI sites by the wild-type PvuII endonuclease was not detectible (data not shown). It is clear that, compared to K93R, these K93R variants show an increase in specific cleavage activity at CAATTG and […], while maintaining similar levels of cleavage activity at CAGCTG."}, "[6]": {"target": "T5, PvuII E18K/K93R/R105H (UniProt P23657 P23657:1-157, E18K/K93R/R105H)", "T5 sequence": "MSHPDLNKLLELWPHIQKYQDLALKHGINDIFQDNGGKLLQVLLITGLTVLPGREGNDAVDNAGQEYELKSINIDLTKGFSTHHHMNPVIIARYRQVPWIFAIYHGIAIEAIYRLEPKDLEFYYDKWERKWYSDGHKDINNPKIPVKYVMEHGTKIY", "assay": "cleavage_in_vitro; NEB buffer 2, 37 C, 1.5 h", "conditions": "tags: His-tag; chain copies: 2 inferred", "excerpt": "as §1"}, "[7]": {"target": "T6, PvuII K93R/V50A (UniProt P23657 P23657:1-157, K93R/V50A)", "T6 sequence": "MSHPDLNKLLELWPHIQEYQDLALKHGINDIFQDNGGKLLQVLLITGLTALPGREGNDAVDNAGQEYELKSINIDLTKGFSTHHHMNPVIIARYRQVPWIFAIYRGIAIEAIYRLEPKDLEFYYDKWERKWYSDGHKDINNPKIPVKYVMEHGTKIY", "assay": "cleavage_in_vitro; NEB buffer 2, 37 C, 1.5 h", "conditions": "tags: His-tag; chain copies: 2 inferred", "excerpt": "as §1"}, "[8]": {"target": "T7, PvuII K93R (UniProt P23657 P23657:1-157, K93R)", "T7 sequence": "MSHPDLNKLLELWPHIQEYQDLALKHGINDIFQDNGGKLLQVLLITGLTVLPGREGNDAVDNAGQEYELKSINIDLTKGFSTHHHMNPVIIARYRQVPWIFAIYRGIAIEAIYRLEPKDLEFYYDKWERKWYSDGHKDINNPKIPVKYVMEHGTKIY", "assay": "cleavage_in_vitro; NEB buffer 2, 37 C, 1.5 h", "conditions": "tags: His-tag; chain copies: 2 inferred", "excerpt": "as §1"}, "[9]": {"target": "T8, BsoBI pseudorevertant 8d (UniProt P70985 P70985:1-323, N36K/D246A)", "T8 sequence": "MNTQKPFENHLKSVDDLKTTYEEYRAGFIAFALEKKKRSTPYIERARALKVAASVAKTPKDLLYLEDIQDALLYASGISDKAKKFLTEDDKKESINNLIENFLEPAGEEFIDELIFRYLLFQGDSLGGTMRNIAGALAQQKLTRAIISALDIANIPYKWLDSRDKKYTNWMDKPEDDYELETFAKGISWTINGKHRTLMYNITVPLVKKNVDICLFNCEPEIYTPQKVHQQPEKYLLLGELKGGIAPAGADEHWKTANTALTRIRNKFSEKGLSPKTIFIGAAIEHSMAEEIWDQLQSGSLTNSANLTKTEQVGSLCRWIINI", "assay": "cleavage_in_vitro; pUC19, 65 C", "conditions": "tags: partially purified; chain copies: 2 inferred"}, "[10]": {"target": "T9, BsoBI pseudorevertant 29e (UniProt P70985 P70985:1-323, D246A/C317W)", "T9 sequence": "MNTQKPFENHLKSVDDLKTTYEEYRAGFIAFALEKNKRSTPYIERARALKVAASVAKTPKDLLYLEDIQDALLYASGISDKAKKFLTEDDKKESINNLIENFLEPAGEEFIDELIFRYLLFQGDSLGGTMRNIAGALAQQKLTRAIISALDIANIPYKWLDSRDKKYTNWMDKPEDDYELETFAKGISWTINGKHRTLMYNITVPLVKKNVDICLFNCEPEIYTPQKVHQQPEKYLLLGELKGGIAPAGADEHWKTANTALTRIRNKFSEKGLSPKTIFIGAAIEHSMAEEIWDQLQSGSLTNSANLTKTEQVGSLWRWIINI", "assay": "cleavage_in_vitro; pUC19, 65 C", "conditions": "chain copies: 2 inferred"}, "[11]": {"target": "T10, BsoBI restriction endonuclease (UniProt P70985 P70985:1-323)", "T10 sequence": "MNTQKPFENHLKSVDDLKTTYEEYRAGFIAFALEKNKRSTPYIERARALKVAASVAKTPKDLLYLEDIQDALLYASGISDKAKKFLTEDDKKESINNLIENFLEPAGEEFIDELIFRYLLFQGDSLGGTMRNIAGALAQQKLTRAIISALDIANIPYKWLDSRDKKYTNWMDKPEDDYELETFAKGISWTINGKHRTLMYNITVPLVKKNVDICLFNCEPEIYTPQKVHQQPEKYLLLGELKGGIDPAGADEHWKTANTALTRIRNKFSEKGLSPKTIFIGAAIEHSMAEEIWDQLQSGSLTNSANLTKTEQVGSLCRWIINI", "assay": "cleavage_in_vitro; pUC19, NEB buffer 2, 65 C", "conditions": "tags: untagged, expressed from pRRS-bsoBIR in E. coli ER2683; chain copies: 2 inferred"}, "[12]": {"target": "T11, BsoBI pseudorevertant 9c (same as 11c) (UniProt P70985 P70985:1-323, R38S/L62I/D112Y/N169T/L238F/D246A/A248S)", "T11 sequence": "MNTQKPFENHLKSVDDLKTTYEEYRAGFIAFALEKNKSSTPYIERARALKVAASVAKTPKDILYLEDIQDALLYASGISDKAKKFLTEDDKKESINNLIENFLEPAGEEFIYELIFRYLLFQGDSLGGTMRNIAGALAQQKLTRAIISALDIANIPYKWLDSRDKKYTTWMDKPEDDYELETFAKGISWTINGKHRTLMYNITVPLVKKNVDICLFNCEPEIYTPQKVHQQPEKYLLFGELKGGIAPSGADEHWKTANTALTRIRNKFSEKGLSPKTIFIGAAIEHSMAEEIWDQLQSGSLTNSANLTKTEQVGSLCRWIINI", "assay": "cleavage_in_vitro; pUC19, 65 C; protein temperature sensitive", "conditions": "chain copies: 2 inferred"}}}
{"molecule": "GTACCCGGGGAT (double strand) [pUC19/pZZ1 CCCGGG site]", "values": [{"measurement": "activity", "setting": "[1]", "value": "4 % of wt"}]}
{"molecule": "lambda DNA (8 BsoBI sites)", "values": [{"measurement": "activity", "setting": "[2]", "value": "< 0.001 % of wt"}, {"measurement": "activity", "setting": "[3]", "value": "< 0.001 % of wt"}, {"measurement": "activity", "setting": "[4]", "value": "< 0.001 % of wt"}]}
{"molecule": "pTYB1 1270 bp PCR fragment, MfeI site (dsDNA) DNA 1: CAATTG DNA 2: CAATTG", "values": [{"measurement": "activity", "setting": "[5]", "value": "0.1 ug protein required to cleave"}, {"measurement": "activity", "setting": "[6]", "value": "0.03 ug protein required to cleave"}, {"measurement": "activity", "setting": "[7]", "value": "0.1 ug protein required to cleave"}]}
{"molecule": "pUC19 1042 bp PCR fragment, unique PvuII site (dsDNA) DNA 1: CAGCTG DNA 2: CAGCTG", "values": [{"measurement": "activity", "setting": "[8]", "value": "0.03 ug protein required to cleave"}, {"measurement": "activity", "setting": "[5]", "value": "0.01 ug protein required to cleave"}, {"measurement": "activity", "setting": "[6]", "value": "0.03 ug protein required to cleave"}, {"measurement": "activity", "setting": "[7]", "value": "0.01 ug protein required to cleave"}]}
{"molecule": "pUC19/pZZ1 CCCGGG site (dsDNA) DNA 1: GTACCCGGGGAT DNA 2: ATCCCCGGGTAC", "values": [{"measurement": "activity", "setting": "[9]", "value": "5 % of wt"}, {"measurement": "activity", "setting": "[10]", "value": "4 % of wt"}, {"measurement": "activity", "setting": "[11]", "value": "100 % of wt"}, {"measurement": "activity", "setting": "[12]", "value": "10 % of wt"}]}
